The assay deals with FL3 cells. As to the kind of experiment: cell proliferation assay, FL3 cells. Particulars: 1% FBS, 6 d, added MST1 alone 5 nM, relative to untreated cells. The assay is classed as cell-based, Human.

B1: MST1: exogenous cognate ligand of MST1R, added to cells at 5 nM (protein, UniProt P26927 19-711, looked up)
Hepatocyte growth factor-like …: QRSPLNDFQVLRGTELQHLLHAVVPGPWQEDVADAEECAGRCGPLMDCRAFHYNVSSHGCQLLPWTQHSPHTRLRRSGRCDLFQKKDYVRTCIMNNGVGYRGTMATTVGGLPCQAWSHKFPNDHKYTPTLRNGLEENFCRNPDGDPGGPWCYTTDPAVRFQSCGIKSCREAACVWCNGEEYRGAVDRTESGRECQRWDLQHPHQHPFEPGKFLDQGLDDNYCRNPDGSERPWCYTTDPQIEREFCDLPRCGSEAQPRQEATTVSCFRGKGEGYRGTANTTTAGVPCQRWDAQIPHQHRFTPEKYACKDLRENFCRNPDGSEAPWCFTLRPGMRAAFCYQIRRCTDDVRPQDCYHGAGEQYRGTVSKTRKGVQCQRWSAETPHKPQFTFTSEPHAQLEENFCRNPDGDSHGPWCYTMDPRTPFDYCALRRCADDQPPSILDPPDQVQFEKCGKRVDRLDQRRSKLRVVGGHPGNSPWTVSLRNRQGQHFCGGSLVKEQWILTARQCFSSCHMPLTGYEVWLGTLFQNPQHGEPSLQRVPVAKMVCGPSGSQLVLLKLERSVTLNQRVALICLPPEWYVVPPGTKCEIAGWGETKGTGNDTVLNVALLNVISNQECNIKHRGRVRESEMCTEGLLAPVGACEGDYGGPLACFTHNCWVLEGIIIPNRVCARSRWPAVFTRVSVFVDWIHKVMRLG
As for B1, the proliferation rate entry is listed as “significantly increased proliferation rate”.

The record behind these values is paper PMC8297783, “Autocrine signaling by receptor tyrosine kinases in urothelial carcinoma of the bladder” (PLoS ONE, 2021).
